According to patent US20250197501A1:

Tests used:
[1] = biological target: human B7-H3 on the surface of human cancer cells (human) (UniProt Q5ZPR3); assay: flow cytometry, HA59T cells
[2] = biological target: human B7-H3 on the surface of human cancer cells (human) (UniProt Q5ZPR3); assay: flow cytometry, LNCaP cells
[3] = biological target: human B7-H3 on the surface of human cancer cells (human) (UniProt Q5ZPR3); assay: flow cytometry, Huh7 cells
[4] = biological target: human B7-H3 on the surface of human cancer cells (human) (UniProt Q5ZPR3); assay: flow cytometry, PC-3 cells
[5] = biological target: human B7-H3 on the surface of human cancer cells (human) (UniProt Q5ZPR3); assay: flow cytometry, Detroit 562 cells
[6] = biological target: human B7-H3 on the surface of human cancer cells (human) (UniProt Q5ZPR3); assay: flow cytometry, OECM-1 cells
[7] = biological target: human B7-H3 on the surface of human cancer cells (human) (UniProt Q5ZPR3); assay: flow cytometry, DU145 cells
[8] = biological target: human B7-H3 on the surface of human cancer cells (human) (UniProt Q5ZPR3); assay: flow cytometry, NCI-H520 cells
[9] = biological target: human B7-H3 on the surface of human cancer cells (human) (UniProt Q5ZPR3); assay: flow cytometry, CAL 27 cells
[10] = biological target: human B7-H3 on the surface of human cancer cells (human) (UniProt Q5ZPR3); assay: flow cytometry, HepG2 cells
[11] = biological target: human B7-H3 on the surface of human cancer cells (human) (UniProt Q5ZPR3); assay: flow cytometry, H1299 cells
[12] = biological target: human B7-H3 on the surface of human cancer cells (human) (UniProt Q5ZPR3); assay: flow cytometry, A549 cells

Measured: MFI value

human B7-H3 on the surface of human cancer cells (human), sequence (Q5ZPR3 29-534 limits assumed): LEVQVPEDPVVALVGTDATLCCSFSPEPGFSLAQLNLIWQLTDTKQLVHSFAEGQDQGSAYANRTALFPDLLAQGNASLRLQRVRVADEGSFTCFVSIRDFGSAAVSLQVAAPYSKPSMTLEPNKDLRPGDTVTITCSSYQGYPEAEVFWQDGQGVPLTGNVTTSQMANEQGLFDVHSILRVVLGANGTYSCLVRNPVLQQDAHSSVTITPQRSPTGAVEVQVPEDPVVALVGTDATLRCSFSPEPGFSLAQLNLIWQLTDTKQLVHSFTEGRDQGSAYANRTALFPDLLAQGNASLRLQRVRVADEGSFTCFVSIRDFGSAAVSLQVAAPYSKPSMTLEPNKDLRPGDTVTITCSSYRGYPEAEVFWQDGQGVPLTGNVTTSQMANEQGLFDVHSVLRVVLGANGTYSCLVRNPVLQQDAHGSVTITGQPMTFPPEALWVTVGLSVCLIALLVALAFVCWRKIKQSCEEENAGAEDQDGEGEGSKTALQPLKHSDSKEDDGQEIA

IgG (isotype control antibody)
< 600 MFI: all assays above
